Experimental data from the supplement of paper PMC7125110.
± gives the standard error. Fewer inactive variants are shown than the library holds.

B1: glmS ribozyme (parent)
chain: AUAAAAGCGCCAGAACUACAGAAAUGUAGUUGACGAGGAGGAGGUUUAUCGAAUUUUCGGCGGAUGCCUCCAAA

Legend:
Conditions in all cases: with glucosamine-6-phosphate
glucosamine-6-phosphate [1] = variants of: B1; assay: self-cleavage kobs at 640 uM GlcN6P; higher = faster cleavage; RNA array
Summary of the method: (§1)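 Barcoded ribozyme variants on sequenced MiSeq chips were transcribed in situ by E. coli RNA polymerase and followed at 37 °C through a hybridised Cy3 probe. Glucosamine-6-phosphate at 40 μM to 10 mM in HEPES/KCl/Mg(OAc)2 buffer was flowed in, and tiles were imaged over ~14 h. Signals were normalised to baseline and to non-cleaving reference variants, and per-tile medians were fit to one- or two-exponential decays to give kobs. Weighted Michaelis–Menten fits across concentrations gave kcat and KM.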

glucosamine-6-phosphate [2] = variants of: B1; assay: self-cleavage kobs at 160 uM GlcN6P; higher = faster cleavage; RNA array
Summary of the method: as §1

glucosamine-6-phosphate [3] = variants of: B1; assay: self-cleavage kobs at 2500 uM GlcN6P; higher = faster cleavage; RNA array
Summary of the method: as §1

glucosamine-6-phosphate [4] = variants of: B1; assay: self-cleavage kobs at 10000 uM GlcN6P; higher = faster cleavage; RNA array
Summary of the method: as §1

Variant | self-cleavage kobs at 640 uM GlcN6P (glucosamine-6-phosphate [1]) [s⁻¹] | self-cleavage kobs at 160 uM GlcN6P (glucosamine-6-phosphate [2]) [s⁻¹] | self-cleavage kobs at 2500 uM GlcN6P (glucosamine-6-phosphate [3]) [s⁻¹] | self-cleavage kobs at 10000 uM GlcN6P (glucosamine-6-phosphate [4]) [s⁻¹]
A6C G35U G37U G38C | < 1e-05 | – | – | –
U45G U47G | 0.00314 ± 0.00086 | 0.000328 ± 9.1e-05 | 0.00347 ± 0.00055 | –
A6C C8U G38C G51C | < 1e-05 | – | < 1e-05 | –
G51U C61U | < 1e-05 | < 1e-05 | < 1e-05 | < 1e-05
A6U U54A | 9.76e-05 ± 2e-05 | – | 0.000837 ± 0.00027 | 0.000256 ± 4.4e-05
A6C C11A U47C | < 1e-05 | – | < 1e-05 | –
U49G G51C C61U G63A | – | < 1e-05 | – | –
C50G G60U | – | 4.83e-05 ± 1.6e-05 | 4.39e-05 ± 1.9e-05 | –
G7A C10U C67G | 8.24e-05 ± 3.5e-05 | – | – | –
A53G G60A G66C | – | < 1e-05 | – | –
A6G G51A G59U G60A | < 1e-05 | – | < 1e-05 | –
A6G A14C C16G G40C | < 1e-05 | – | < 1e-05 | –
U65C G66C | < 1e-05 | < 1e-05 | – | < 1e-05
G7A U56C C68U | < 1e-05 | – | – | < 1e-05
A6G G38U | < 1e-05 | – | < 1e-05 | < 1e-05
C8G A15G A33C | < 1e-05 | – | < 1e-05 | –
A6U C8A A64U | < 1e-05 | – | < 1e-05 | –
A6G G29U G62C | < 1e-05 | – | – | –
G51U U69G C71A | 7.38e-05 ± 2.2e-05 | 0.00015 ± 5.2e-05 | 7.85e-05 ± 3.7e-05 | –
G7C C8A A42U | < 1e-05 | – | – | –
G51A A52U | – | < 1e-05 | – | –

Variant | self-cleavage kobs at 640 uM GlcN6P (glucosamine-6-phosphate [1]) [s⁻¹] | self-cleavage kobs at 160 uM GlcN6P (glucosamine-6-phosphate [2]) [s⁻¹] | self-cleavage kobs at 2500 uM GlcN6P (glucosamine-6-phosphate [3]) [s⁻¹] | self-cleavage kobs at 10000 uM GlcN6P (glucosamine-6-phosphate [4]) [s⁻¹]
C8A A48G A53U | < 1e-05 | – | < 1e-05 | –
G59C G60A | – | < 1e-05 | < 1e-05 | –
A6G G29C G35U A42C C58G C68G | < 1e-05 | – | – | –
A52G C61U C68G | 0.000189 ± 6.4e-05 | 0.000141 ± 4.2e-05 | – | –
A6G A36C C50G | 0.000132 ± 3.4e-05 | – | – | –
G7A G43A U55A G60U C67U C70G | < 1e-05 | – | – | –
C8A U31C G32A | < 1e-05 | – | – | –
A6C G35C U54A | < 1e-05 | – | < 1e-05 | < 1e-05
G7U C8A C10U U46C A52U | < 1e-05 | – | – | –
A6U C67U C70G | 0.000211 ± 6.3e-05 | – | – | –
U2C G35U C68U | < 1e-05 | – | – | –
A6U C50A U65A U69C | 8.83e-05 ± 3.7e-05 | – | – | –
A6C C16A U31C | < 1e-05 | – | < 1e-05 | –
C8G A14U A42G | < 1e-05 | – | – | –
U49C C58A G60U | < 1e-05 | < 1e-05 | < 1e-05 | –
C50G A52U U56G A64U | < 1e-05 | < 1e-05 | < 1e-05 | –
G7U G40U C50G | < 1e-05 | – | < 1e-05 | –
A48U C68U C70U | – | < 1e-05 | – | –
G7U U30A G51A | < 1e-05 | – | – | –
G7U A36C A42C G66C | < 1e-05 | – | – | –
G7C C10U G43U | < 1e-05 | – | – | –

Variant | self-cleavage kobs at 640 uM GlcN6P (glucosamine-6-phosphate [1]) [s⁻¹] | self-cleavage kobs at 160 uM GlcN6P (glucosamine-6-phosphate [2]) [s⁻¹] | self-cleavage kobs at 2500 uM GlcN6P (glucosamine-6-phosphate [3]) [s⁻¹] | self-cleavage kobs at 10000 uM GlcN6P (glucosamine-6-phosphate [4]) [s⁻¹]
A6U G44U G51U U54A | < 1e-05 | – | < 1e-05 | –
G59U G60A | < 1e-05 | < 1e-05 | – | –
G7U C10U G43U | < 1e-05 | – | – | –
A48C A52U | < 1e-05 | < 1e-05 | < 1e-05 | < 1e-05
G7A A48G A64U C70U | < 1e-05 | – | – | –
C8A C34U A36U G59U G62A | < 1e-05 | – | – | –
G7U G13U A42G | < 1e-05 | – | – | –
C61U U65G | < 1e-05 | < 1e-05 | – | –
U65G C67A C71G | 4.48e-05 ± 1.8e-05 | 0.000166 ± 5.7e-05 | 7.1e-05 ± 1.3e-05 | 4.47e-05 ± 1.5e-05
U56A U69G | 5.7e-05 ± 2e-05 | 5.23e-05 ± 1e-05 | 0.000127 ± 4.2e-05 | 4.58e-05 ± 8.9e-06
G7C A15U G43A A48G C67A | < 1e-05 | – | < 1e-05 | –
A6G U31G G35A U65C | < 1e-05 | – | < 1e-05 | –
G51A G66A | < 1e-05 | < 1e-05 | – | –
A6C A12U G51U U54G | < 1e-05 | – | < 1e-05 | –
A6G U30A G41A C68U | < 1e-05 | – | – | –
A6C C8G C11A A52C U57G G63C U69G | 0.0016 ± 0.00077 | – | – | –
U56C C67G | < 1e-05 | < 1e-05 | – | < 1e-05
A6U C50A G60A C70A | 0.000136 ± 5e-05 | – | – | –
A6G C67G C68A | 7.11e-05 ± 3.1e-05 | – | – | –
G7C A12G A36C | < 1e-05 | – | – | –
